Data published in paper PMC4192534.

What was measured:
[1] = molecular target: FGF2-C-His (C-terminal 6xHis tagged 18 kDa human FGF2) (human) (UniProt P09038); assay: AlphaScreen or HTRF; N-N orientation: FGF2-C-His bound to both Ni chelate donor and acceptor beads, increasing FGF2-C-His (0-75.5 µM)
[2] = molecular target: FGF2-C-His (C-terminal 6xHis tagged 18 kDa human FGF2) (human) (UniProt P09038); assay: AlphaScreen or HTRF; N-N orientation, competition: 1 µM FGF2-C-His on Ni chelate donor and acceptor beads with increasing competitor
[3] = molecular target: FGF2-C-His (C-terminal 6xHis tagged 18 kDa human FGF2) (human) (UniProt P09038); assay: AlphaScreen or HTRF; C-N orientation, competition: 50 nM FGF2-N-GST and 50 nM FGF2-C-His with increasing competitor, added 30 min before the beads; signal as percent of control without competitor

FGF2-C-His (C-terminal 6xHis tagged 18 kDa human FGF2) (from UniProt P09038-2 1-155) (natural protein)
EC50 [1]: 6350 nM

FGF2-N-GST (N-terminal GST tagged 18 kDa human FGF2) (from UniProt P09038-2 1-155) (natural protein)
IC50 [2]: 620 nM

Tag-less FGF2 (from UniProt P09038 143-288) (natural protein)
IC50 [3]: 180 nM

platelet factor 4 (PF4) (natural protein)
IC50 [2]: 9560 nM | IC50 [3]: 265 nM
